Reference: the NTF2 design screens of Basanta et al. (2020)

Assay: protease stability score; higher = more stable; yeast display proteolysis, trypsin and chymotrypsin;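 also: log10 excess protease needed over predicted unfolded state with 0 meaning unfolded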

| Sequence | protease stability score |
| --- | --- |
| DEDRMTEAEKILKENNPDQMRDLFDENAKAEIGDNDLHGREHIVEEQRRYNEKVDHVQYHSVTFSNGKMRFDVRASVNGKKFRFQAEFHLDNGKIKHIKIDFRDEEDEKEFKRVVG | 0.66 |
| DEDRQQTLADELVKALEKGDFEKIEKLADPNVRVEIGDRHVRGREQASKELKKYTDRVDEVRIDSLEVQGEKVSADFRFNVDGHTIRLTAEITFHNGRIKMMRFHFTNEDQERRYKS | 1.02 |
| DEDRRAKELAERLDEALRTGDEERLQRLFDKDVRFDIGDKTIHGRTEAARQMVTHANRADHVHMKVTDLKRHGSRIVVVVHFRQNINGKKDSRDVKIEVKLEGDRIKVVRATYR | 0.888 |
| DEDRRAREWVETMQDIVENNNERDMKKLFDPNARVSVGDREYHGEDEIAHVLQREMENADNIHIEVKSIIVHGDKVTVDLTVSVQVNGKTETDRVRMVLKDKDGRIQVVSVQQT | 0.597 |
| DEDRTRRMLEKVFEYVVKGDVDHVRKHGKPNVRYEYADKKKEGEEVYKLIVKIVKKVGAEAKRREQEVKGDTMRANFQYNKGDKTVQTTAEAQYEGDKADKLRAELTDEVKKVVHQG | -0.152 |
| DEDRVRKVAKEVFEMLKKGDVDKLKELGKEDVVFQFGDERVKGVEEYRRIMKEMQDQGVQHEVKKAQVKDDTAKMVTVVTYGNKDVQLTAEATYEGGRLKEARVENTEEYKKIAKKS | -0.084 |
| DEDRVRRHLEKAFKVIQNGNEEEAKKIGAPDVEYHYADKELEGEEAVIVAVRIVKKIGAEVKTQEEEVKGNEMRATFQYKKGDTTVQTKATVVYEGDKLKKARVELSDEVKKIIHQG | -0.111 |
| DEDRYERLVKKAFEMIVKGNEEEVRKLLKPDVDYEYADHKFRGEEAAQFIVRLVQKVGAQAEVRRHKVEGNTATADFVYHDGDQTVQTRAEVTYEGDKLKQARVENTEEVKKLDHKG | 0.003 |
| DEDRYKKLMDKAFKLIMSGDEETMIKMLKPDVQYEYIDTKYEGEQVAKVIVRIVQKVGAEVRIKRKEHKGDKARADFDYHNGDQTVRTTAEVRYEGDKLKEARVKMTDEVKKVVQRG | 0.028 |
| DEDRYRRKIEEVFKQVENGDEKKMKKDLKENVKYKYADKEKEGPEVAEHIVKVVKKIGAEVTRKEQEVKGDTLRAKFQYRKGDQTVRTEAEATYEGDQAKEVRVKMTDEVKKIVHQG | 0.05 |
| DEDSDRSVAQEFFEAVQRGNKSDVHRLADKDAKAEVGEKDIDGREELTKWVRELKRRVDHLDVKSITNKPGRVHFDAEYHFNGTTEKMVIVVQVHNGKVKEVTVQRG | 0.908 |
| DEDSEAHKLLRELEKVLSTGDEDKMRRLADPNASIRIGDTQIRGRTQIQDHVKRHKEHVDKVSIDVKEVTAQGNKANMKYVIRVQINGRTHQEQVRVDVDLQGDKFKIKQWTEG | 0.055 |
| DEDSEATEVAKTMHKNMKEGDPDKFMDQFDKDVRVQVGDKVYHGRDNALKWVREMLKRVDHVNFQVKRVRRQGDSVVLHLEVTLNQNGKHDKTTFVIHFTKQGDKFRADHLREQ | 1.86 |
| DEDSEFEAARRFFKAVQTGDEDEAMRQMDEDASARVGDKTYHGREHARKAMHNFRQEVDHIDVTTFDKSNGRLDVNAILEHNGKTKSVKINIQASNGHVKSVNIQDK | -0.103 |
| DEDSHKKLLEEMKDILNHGNFKNMLELADKNVRMQVGDKQYTGHSEFEDFLEHQRRQIDHLQVTDFKVSGENLVLTATANVNGKHVTIRFVVFFENGKMVRMEVDPSFQKQLES | 0.87 |
| DEDSQAHEIAQHFIELLKHNNEDDMKKYIDPNAKAQYGDKRVHGRNHVIRTFKEMRDKVDHISVEIKSIKANGEKISADMVVTFNVNGKNETVQYVLIFQVQGERVRVTHVKID | 0.796 |
| DEDSQTKLAELFITALEEGDPELANKNVDENARADVGDKTLHGREDVSRMVHDLRRRADHIQVETLEVRNGRVDAIIVIDVNGKKVRFRMEIEIHNGRIKHLRMKSE | 0.653 |
| DEDTALTIAEQVMKAIQRGDEEEAEKLGKPDVEVQAFNERNKGQEMLKKAVEYVKKVGDQFEYKETRKEGNQVVTVVQVTRGGRTMEYKVDVKVEGGKVKLWRVEIPEEFAKVVEKS | 0.013 |

| Sequence | protease stability score |
| --- | --- |
| DEDTARKQVQIYKDNDPNQLVRMFDENARLKVGDQTVDGREELERWVKRLRTRVDRYSYKNVDIQGERVVIDMVMVVDGKQVEFVVEFVVEDGRIKNAKVQARNKDEETKLQEAIG | 1.25 |
| DEDTESNFRQFIRAWKSGNPNELRRLAPPDAHLKVGDKEWHGMEKAVTYLEREVKESTFDIKRWDVKVDGNSVTAHVKMVVHDNGQPNNYKVEMNANFHNGQIESYNVETRK | 0.267 |
| DEDTIKKLVKRMIDALVKNNTEEARRLLKPDVRFEAVDTEVRGPDQVATYYKKVKDLGVEIRVKEYKVEGNHAKVKYDMRHGGDQITVEAELEAKDSKVDRFRHEDDEKYQKTVKHG | 0.154 |
| DEDTIRKVNRSFLEAVQHNDDDTLRRLLDEDAHAQYGDKTVHGKTEVVKMILTFVEQVDSLDYKSITATGDHVDVKVDAKHNGRTLDVRIIMRIENGRFTHVQFDIR | 0.075 |
| DEDTIRRQAKEFFKNFRDNDEDSLRTLMDENVEARYGDKTYHGRESVLTALATVLSQIDHLEVENLHVHNGRIEVVMKFVVNGREVRMNVIFHIRNGRIKKINIDPDEQRKLES | 1.49 |
| DEDTLKHMAREFVKALQTGDEDRLSEMVDENVRIDYGDKTVSGRKKAQEYAHRVRKQVDHIEVREVEVHGNKVEIDAVLVFNGQRLTVTFRIIMRNGKVQHIQLEVTDPDKQRKAEQ | 1.26 |
| DEDTLKKLFEQVFKYVQKGNTKELKKVIDESVEFQFGDHRYKGVDQYIKLIKEFKDRGVQFRVEEAQQKDDDVTMRTKIRYGNKEVTVKAQARYDGGHAKHFRVELSEEAKKALKTG | 0.292 |
| DEDTLKKMAQKIADAIRKGDEDQMERLADEDARMSYGDTTWHGRQEVKKAVREFRNQFDHLTIKRITVKGEKVKIDAEFTVNGREVSFVVIAHVNNGRLKEVVVHFTDPDTLHEALK | 0.622 |
| DEDTLRKVAETLMKALKTNDSESLKQMMDKDVKMTVGDKKYQGREEAADHLIELAQSVDHLEVRSVDNQGNHASVEFEVQHNGRNDTVHLRFEISNGRVKNVVLHTP | 1.99 |
| DEDTLRTQEEQFKRNNPDDLKKQFDPNAKIRYGDKEITGREDLKKFIDKLRKRIDHYRVRSINIKGEHVRADVVVVVDGRHVRYKVIRHLDNGKVKSLEVKFTSEEQEKKFKEALD | 0.261 |
| DEDTNREQVKRFEEAQQENDPDKWMDNLDENARLDVGDTRVHGSKEIMKHFKRLNDKIDHWRVQSFEFHNGRMKLNAVARVNGKRLKMQFQANVHNGKFTELRMDPDAVRKITS | 0.413 |
| DEDVEDRVRRFLEQVNHNNPQDLSKYMDPNARLDIGDKVLHGREDIHKFWEDLIRESRIEVREMDVKVHNGRVSATVRFVEHENGNPRETVMKITATWSNGRAQFMRFQSDG | 0.82 |
| DEDVERIIKRFLTALTHNDPEQAAQNVDPNAQVRIGDKSVHGKDQLKNRIEEEVKEMRVDIKHMSVDVKGNKASIHLHFVIQTNGKPDEKTAVMEVVVQGDKIHELELHDTK | 0.725 |
| DEDVKELAEKYWKVVKEGNPHEVKKMVDPNVKFNVGEQHIHGREEVARQVSKENREIRINYQLRDVKVHNGRVDVTADLEEEHNGKPETNKVKAHFVFRNGRVQTLSQTNKK | -0.031 |
| DEDVKKLFEDWLRALQTNNPDEVNEMADPNVTVKVGNKVVHGREQLNKDLKEETKHIRVTYHHVDLTVHNGRAKARLDVTVNVNGRPVRFQFNVTVHARNGRVVSMHVQIPHEVLETIKQ | 1.57 |
| DEDVKRMIEDFIEAEKKNNPRQLKKNADPEAEADVGDTKVHGMDHFAREVKKRMDQMRVSVDYKSITVDGNTIKAKARVSENHNGRPKHNTATLEFRAHNGRIKEIRHHEDK | -0.332 |
| DEDVKRVMEELVKVMHNNDPNEFMKLLDPNARWTIGDKTYHGRDNLRREVKKHHDQQRVQYKSWHIDVHGERATATAEVRVDHNGQPDTFRLVISAQAHNGRVKRAEYRKDT | -0.145 |
| DEDVQDQYRKILEAEKKNNPDHLNELMDPNVKFNVGDHTIHGREQRKEKQDELVKESRYDIKVDRVSVKGNKFVAKFKVTEEHNGRPHTTVLVIVMTVENGHVKRLQVKRDK | -0.001 |
